Test system: M38K cells
Assay: Cell cycle distribution by flow cytometry (M38K cells)
Assay type: cell-based, human
Procedure: Cell cycle distribution was analyzed by flow cytometry. 5×10^5 M38K cells were seeded in 25 cm^2 tissue culture flasks. After 24 h, cells were stimulated for 1 h or kept in the dark. After additional 24 h, cells were fixed in ethanol (70%), treated with 50 μg/ml RNAse A and 50 μg/ml propidium iodide (PI). Flow cytometry was performed on a FACSCalibur (BD Biosciences, Schwechat, Austria) and cell cycle distribution calculated with ModFit LT software (Verity Software House, Topsham, Me.).

B1: Opto-mFGFR1: chimeric receptor of mFGFR1 intracellular domain and VfAU1-LOV, SEQ ID NO: 58 (protein)
chain: MGSSKSKPKDPSQRLDMKSGTKKSDFHSQMAVHKLAKSIPLRRQVTVSADSSASMNSGVLLVRPSRLSSSGTPMLAGVSEYELPEDPRWELPRDRLVLGKPLGEGCFGQVVLAEAIGLDKDKPNRVTKVAVKMLKSDATEKDLSDLISEMEMMKMIGKHKNIINLLGACTQDGPLYVIVEYASKGNLREYLQARRPPGLEYCYNPSHNPEEQLSSKDLVSCAYQVARGMEYLASKKCIHRDLAARNVLVTEDNVMKIADFGLARDIHHIDYYKKTTNGRLPVKWMAPEALFDRIYTHQSDVWSFGVLLWEIFTLGGSPYPGVPVEELFKLLKEGHRMDKPSNCTNELYMMMRDCWHAVPSQRPTFKQLVEDLDRIVALTSNQEYLDLSIPLDQYSPSFPDTRSSTCSSGEDSVFSHEPLPEEPCLPRHPTQLANSGLKRRVETGPDYSLVKALQMAQQNFVITDASLPDNPIVYASRGFLTLTGYSLDQILGRNCRFLQGPETDPRAVDKIRNAITKGVDTSVCLLNYRQDGTTFWNLFFVAGLRDSKGNIVNYVGVQSKVSEDYAKLLVNEQNIEYKGVRTSNMLRRKTGGSGVDYPYDVPDYALD
modifications: mFGFR1-VfAU1-LOV
Cell cycle distribution upon light stimulation: a shift of cell cycle distribution towards the S-phase

Reference: patent publication US20160326219A1, “OPTICALLY ACTIVATED RECEPTORS” (IST AUSTRIA (INSTITUTE OF SCIENCE AND TECHNOLOGY AUSTRIA), priority 2013, published 2016)
